Test results as given in article doi:10.1101/2023.07.18.549521.

Target: LC3B LIR docking site (LDS) mutant (F52A/L53A) (UniProt Q9GZQ8)
Test: ITC

Kd: > 300 µM
Substance: tepsin LIR motif peptide (residues 185-193)
